We go through 2 molecules from publication PMC3626704 (BMC Biochemistry, 2013).

As a reminder, the IC50 is the concentration at which inhibition is half-maximal.

Assay [1] deals with T1, 5-Helix (HIV-1 group M subtype B, HXB2 (gp41 …, stabilised)).
T1 construct: also called designed protein based on HIV-1 gp41
As to the kind of experiment: ELISA. Conditions: both partners purified. On the technique in general: ELISA stands for enzyme-linked immunosorbent assay.

For assay [2], the target named is T2, 6-Helix-Fd (HIV-1 gp41 (HXB2-like, printed sequence), stabilised).
T2 construct: also called post-fusion six-helix bundle mimic
T2 chain: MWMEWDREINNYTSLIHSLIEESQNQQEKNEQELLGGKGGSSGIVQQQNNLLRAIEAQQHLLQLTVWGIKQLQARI
As to the kind of experiment: ELISA. The conditions noted are these: both partners purified.

B1: 25B6 scFv, purified monovalent (scFv, V domains shown)
VH: QVQLVQSGAEVRKPGASVKVSCKASGDTFSSYAISWVRQAPGQGLEWMGGIIPIFGTANYAQAFQGRVTITANESTSTAYMELSSLRSEDTAIYYCARDNPTLLGSDYWGAGTLVTVSS
VL: DIQMTQSPSTLSASIGDRVTITCRASENIRSGLAWYQQKPGKAPKLLIYRASRLASGAPSRFSGSGSGTDFTLTISSLQPDDFATYYCQQYDDYPHTFGGGTKLEIK
Consider B1, for which the figures for the IC50 in assay [1] and in assay [2] were 0.6 nM and 94 nM, respectively.

B2: 25A12 scFv, purified monovalent (scFv, V domains shown)
VH: QVQLVQSGAEVRKPGASVKVSCKASGDTFSSYAISWVRQAPGQGLEWMGGIIPIFGTANYAQAFQGRVTITANESTSTAYMELSSLRSEDTAIYYCARDNPTLLGSDYWGAGTLVTVSS
VL: DIQMTQSPSTLSASIGDRVTITCRASEGIHRYLAWYQQKPGKAPKLLIYHASRLASGAPSRFSGSGSGTDFTLTISSLQPDDFATYYCQQRANYPYTFGGGTKLEIK
As to B2, the IC50 worked out at 34 nM in assay [1] and 280 nM in assay [2].
